According to US5770396:

Legend:
[1] = target: rat FcεRI (αβγ2) (rat); assay: IgE rosetting assay, cotransfected COS 7 cells; 50 µg/ml rat IgE added 30 minutes before mouse anti-DNP IgE (competitor of mouse anti-DNP IgE)
[2] = target: rat FcεRI (αβγ2) (rat); assay: IgE rosetting assay on cotransfected COS 7 cells
[3] = target: rat FcεRI (αβγ2) (rat); assay: IgE rosetting assay, RBL cells (native rat receptor)
[4] = target: rat FcεRI (αβγ2) (rat); assay: IgE rosetting assay, COS 7 cells cotransfected with α, β and γ cDNAs (29 transfections)
[5] = target: COS 7 cells cotransfected with the rat α and β subunits (rat); assay: IgE rosetting assay, COS 7 cells transfected with α and β cDNAs (2 transfections); by the filing no IgE-binding sites reach the surface
[6] = target: rat FcεRI α subunit (rat); assay: IgE rosetting assay, COS 7 cells transfected with α cDNA alone (2 transfections); by the filing α does not reach the surface without β and γ

Substance | IgE Binding (rosettes/cells counted) with inhibitor (rosettes per 7,542 cells counted) [1] | expression of IgE binding (% of cells) [2] [%] | IgE Binding (rosettes/cells counted) [3] [%] | IgE Binding (rosettes/cells counted) (rosettes per 41,238 cells counted) [4] | IgE Binding (rosettes/cells counted) (rosettes per 3,504 cells counted) [5] | IgE Binding (rosettes/cells counted) (rosettes per 4,050 cells counted) [6]
non-specific rat IgE (antibody) | 0 | – | – | – | – | –
mouse IgE anti-DNP (antibody) | – | 5 | 100 | 920 | 0 | 0
